Source: US20090041784A1 (Amgen, published 2009)
Residue numbers refer to the chain shown, from its start.

B1: antibody A-3 (antibody, V domains shown)
VH: QVQLVESGGGVVQPGRSLRLSCAASGFTFSSYGMHWVRQAPGKGLEWVAVMWYDGSNKDYVDSVKGRFTISRDNSKNTLYLQMNRLRAEDTAVYYCAREKDHYDILTGYNYYYGLDVWGQGTTVTVSS
VL: DIQMTQSPSSLSASVGDRVTITCRASQGIRNDLGWYQQKPGKAPKRLIYAASSLQSGVPSRFSGSGSGTEFTLTISSVQPEDFVTYYCLQHNSNPLTFGGGTKVEIK
notes: Human antibody from XenoMouse hybridoma; also called L3H3; antibody 3
B2: antibody A-4 (antibody, V domains shown)
VH: B1 VH with R85S
VL: B1 VL with V78L, V84A
notes: Human antibody from XenoMouse hybridoma (IgG2 or IgG4 strains), purified from conditioned medium; also called L4H4; antibody 4

Tests used:
mouse glucagon receptor [1] = molecular target: T1, mouse glucagon receptor (mouse (Mus musculus), UniProt Q61606 27-485); test: Schild analysis of glucagon dose-response curves (cAMP HTRF) on CHO K1 cells expressing the receptor
T1 construct: also called mouse GCGR; Murine
Protocol: (§1) This assay is adapted from use for small molecules to use with antibodies herein. Both hybridoma supernatant and purified antibodies were tested using the protocol below.
(§2) The GCGR antibody was added into the wells and incubated at 37° C. for 20 minutes followed by addition of glucagon (Calbiochem) and incubation at 37° C. for additional 15 minutes. After adding the cAMP-conjugate in lysis buffer and then anti-cAMP-cryptate (antibody against cAMP conjugated to cryptate) into the wells, the plate was incubated at room temperature for 1 hour before being read with RubyStar (fluorescence microplate reader from BMG Labtech).
(§3) To determine the relative potency of human anti-GCGR antibodies across different species, Schild analysis was performed for each of selected human antibodies. Briefly, the antibodies at different concentrations were tested in the presence of a serial dilution of glucagons, from 100 nM to 10 fM. […] Then, Kb is derived by anti-log of pKb and can be used directly to compare the relative potency of individual antibody across the species.

[2] = molecular target: T2, cynomolgus glucagon receptor (cynomolgus (Macaca fascicularis), UniProt P47871 26-477 (human entry)); test: as above
T2 construct: also called cynomolgus GCGR; Cynomolgus Monkey
T2 chain: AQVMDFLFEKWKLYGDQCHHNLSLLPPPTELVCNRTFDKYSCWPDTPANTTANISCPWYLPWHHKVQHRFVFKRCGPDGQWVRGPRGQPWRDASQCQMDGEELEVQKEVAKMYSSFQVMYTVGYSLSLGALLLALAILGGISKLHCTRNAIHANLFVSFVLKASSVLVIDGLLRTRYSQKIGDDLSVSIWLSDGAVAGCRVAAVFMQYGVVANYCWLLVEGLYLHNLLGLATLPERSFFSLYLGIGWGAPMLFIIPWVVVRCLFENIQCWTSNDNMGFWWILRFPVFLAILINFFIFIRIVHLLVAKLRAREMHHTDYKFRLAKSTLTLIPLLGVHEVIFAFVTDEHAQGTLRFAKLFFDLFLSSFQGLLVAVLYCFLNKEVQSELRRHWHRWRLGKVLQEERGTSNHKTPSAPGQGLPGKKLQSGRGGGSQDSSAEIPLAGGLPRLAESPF
Protocol: as §1, §2, §3

human glucagon receptor [3] = molecular target: T3, human glucagon receptor (human, UniProt P47871 26-477); test: as above
T3 construct: also called human GCGR; GCGR
Protocol: as §1, §2, §3

rat glucagon receptor [4] = molecular target: T4, rat glucagon receptor (rat (Rattus norvegicus), UniProt P30082 27-485); test: as above
T4 construct: also called rat GCGR
Protocol: as §1, §2, §3

mouse glucagon receptor [5] = molecular target: T1, mouse glucagon receptor; test: cell-based or functional assay
[6] = molecular target: T2, cynomolgus glucagon receptor; test: cell-based or functional assay
human glucagon receptor [7] = molecular target: T3, human glucagon receptor; test: cell-based or functional assay
rat glucagon receptor [8] = molecular target: T4, rat glucagon receptor; test: cell-based or functional assay

Row | Binder | Kb (dissociation constant of antibody binding by Schild analysis) (mouse glucagon receptor [1]) | Kb (dissociation constant of antibody binding by Schild analysis) [2] | Kb (dissociation constant of antibody binding by Schild analysis) (human glucagon receptor [3]) | Kb (dissociation constant of antibody binding by Schild analysis) (rat glucagon receptor [4]) | IC50 of inhibition of glucagon-induced cAMP production (HTRF, CHO K1 cells expressing the receptor) (mouse glucagon receptor [5]) | IC50 of inhibition of glucagon-induced cAMP production (HTRF, CHO K1 cells expressing the receptor) [6] | IC50 of inhibition of glucagon-induced cAMP production (HTRF, CHO K1 cells expressing the receptor) (human glucagon receptor [7]) | IC50 of inhibition of glucagon-induced cAMP production (HTRF, CHO K1 cells expressing the receptor) (rat glucagon receptor [8])
1 | B1 | 0.5 nM | 5 nM | 1.6 nM | 3.2 nM | 4.9 nM | 22.5 nM | 9.1 nM | 13.5 nM
2 | B2 | 0.88 nM | 5.7 nM | 1.76 nM |  | 10.1 nM | 52.1 nM | 18.1 nM | 17.2 nM
